Values joined by “and” are separate entries in the source; they are usually repeats but may differ in a detail not shown here. Equal values may be shown once.
B2: GST-TULP3 (60-442 aa, construct-2) (domain or fragment, human, UniProt O75386 60-442, looked up)
chain: AKPRASDEQTPLVNCHTPHSNVILHGIDGPAAVLKPDEVHAPSVSSSVVEEDAENTVDTASKPGLQERLQKHDISESVNFDEETDGISQSACLERPNSASSQNSTDTGTSGSATAAQPADNLLGDIDDLEDFVYSPAPQGVTVRCRIIRDKRGMDRGLFPTYYMYLEKEENQKIFLLAARKRKKSKTANYLISIDPVDLSREGESYVGKLRSNLMGTKFTVYDRGICPMKGRGLVGAAHTRQELAAISYETNVLGFKGPRKMSVIIPGMTLNHKQIPYQPQNNHDSLLSRWQNRTMENLVELHNKAPVWNSDTQSYVLNFRGRVTQASVKNFQIVHKNDPDYIVMQFGRVADDVFTLDYNYPLCAVQAFGIGLSSFDSKLACE
B3: hSIRT2 (36-356 aa), purified, thrombin-digested (domain or fragment, human, UniProt Q8IXJ6 36-356, looked up)
chain: ADMDFLRNLFSQTLSLGSQKERLLDELTLEGVARYMQSERCRRVICLVGAGISTSAGIPDFRSPSTGLYDNLEKYHLPYPEAIFEISYFKKHPEPFFALAKELYPGQFKPTICHYFMRLLKDKGLLLRCYTQNIDTLERIAGLEQEDLVEAHGTFYTSHCVSASCRHEYPLSWMKEKIFSEVTPKCEDCQSLVKPDIVFFGESLPARFFSCMQSDFLKVDLLLVMGTSLQVQPFASLISKAPLSTPRLLINKEKAGQSDPFLGMIMGLGGGMDFDSKKAYRDVAWLGECDQGCLALAELLGWKKELEDLVRREHASIDAQS

Columns and labels:
[1] = target: T1, hSIRT1 (114-510 aa), purified, thrombin-digested (human, UniProt Q96EB6 114-510, NT-647 fluorescent dye (in the MST only)); assay: MST
T1 sequence (looked up): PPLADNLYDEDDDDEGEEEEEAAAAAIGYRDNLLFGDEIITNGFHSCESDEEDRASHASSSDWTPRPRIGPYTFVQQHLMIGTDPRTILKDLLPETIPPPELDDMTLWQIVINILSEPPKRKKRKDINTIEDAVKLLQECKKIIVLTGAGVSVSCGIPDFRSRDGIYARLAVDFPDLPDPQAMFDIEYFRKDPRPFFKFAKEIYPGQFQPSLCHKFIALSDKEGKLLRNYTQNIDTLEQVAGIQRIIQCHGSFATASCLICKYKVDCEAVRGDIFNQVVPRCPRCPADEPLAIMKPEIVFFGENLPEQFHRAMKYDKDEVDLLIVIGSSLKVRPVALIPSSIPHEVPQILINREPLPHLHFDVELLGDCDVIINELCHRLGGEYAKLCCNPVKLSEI

[2] = target: the molecule itself; assay: SEC
[3] = target: T1, hSIRT1 (114-510 aa), purified, …; assay: SPR
[4] = target: B2; assay: SPR
[5] = target: the molecule itself; assay: native gel or EMSA
[6] = target: B3; assay: SPR

B1: N-terminal hTULP3 (1-148 aa, construct-1), GST tag removed (domain or fragment, human, UniProt O75386 1-148, looked up)
chain: MEASRCRLSPSGDSVFHEEMMKMRQAKLDYQRLLLEKRQRKKRLEPFMVQPNPEARLRRAKPRASDEQTPLVNCHTPHSNVILHGIDGPAAVLKPDEVHAPSVSSSVVEEDAENTVDTASKPGLQERLQKHDISESVNFDEETDGISQ
- Kd [1]: 28 µM
- stoichiometry N [2]: 2

Binder: B2
- Kd [3]: 8.1 µM

Binder: B3
- Kd [4]: 66.7 µM and 66.5 µM

B4: deleted hTULP3 (60-442 aa, construct-2), GST tag removed (domain or fragment, human, UniProt O75386 60-442, looked up)
chain: AKPRASDEQTPLVNCHTPHSNVILHGIDGPAAVLKPDEVHAPSVSSSVVEEDAENTVDTASKPGLQERLQKHDISESVNFDEETDGISQSACLERPNSASSQNSTDTGTSGSATAAQPADNLLGDIDDLEDFVYSPAPQGVTVRCRIIRDKRGMDRGLFPTYYMYLEKEENQKIFLLAARKRKKSKTANYLISIDPVDLSREGESYVGKLRSNLMGTKFTVYDRGICPMKGRGLVGAAHTRQELAAISYETNVLGFKGPRKMSVIIPGMTLNHKQIPYQPQNNHDSLLSRWQNRTMENLVELHNKAPVWNSDTQSYVLNFRGRVTQASVKNFQIVHKNDPDYIVMQFGRVADDVFTLDYNYPLCAVQAFGIGLSSFDSKLACE
- stoichiometry N [5]: 2

B5: GST-tagged N-terminal hTULP3 (1-148 aa, construct-1) (domain or fragment, human, UniProt O75386 1-148, looked up)
chain: MEASRCRLSPSGDSVFHEEMMKMRQAKLDYQRLLLEKRQRKKRLEPFMVQPNPEARLRRAKPRASDEQTPLVNCHTPHSNVILHGIDGPAAVLKPDEVHAPSVSSSVVEEDAENTVDTASKPGLQERLQKHDISESVNFDEETDGISQ
- binding result [6]: binds

— article doi:10.1101/2024.12.23.630205 (bioRxiv, 2024)
